The text below walks through data of IntAct's records for PubMed 21685874.

B1: SAGA-associated factor 29 (Homo sapiens), Q96ES7 (parent)
chain: MALVSADSRIAELLTELHQLIKQTQEERSRSEHNLVNIQKTHERMQTENKISPYYRTKLRGLYTTAKADAEAECNILRKALDKIAEIKSLLEERRIAAKIAGLYNDSEPPRKTMRRGVLMTLLQQSAMTLPLWIGKPGDKPPPLCGAIPASGDYVARPGDKVAARVKAVDGDEQWILAEVVSYSHATNKYEVDDIDEEGKERHTLSRRRVIPLPQWKANPETDPEALFQKEQLVLALYPQTTCFYRALIHAPPQRPQDDYSVLFEDTSYADGYSPPLNVAQRYVVACKEPKKK

In one experiment the parent is B1. The conditions noted are these: with h31_human H3C1, P68431.
As for MALVSADSRIAELLTELHQLIKQTQEERSRSEHNLVNIQKTHERMQTENKISPYYRTKLRGLYTTAKADAEAECNILRKALDKIAEIKSLLEERRIAAKIAGLYNDSEPPRKTMRRGVLMTLLQQSAMTLPLWIGKPGDKPPPLCGAIPASGDYVARPGDKVAARVKAVDGDEQWILAEVVSYSHATNKYEVDDIREEGKERHTLSRRRVIPLPQWKANPETDPEALFQKEQLVLALYPQTTCFYRALIHAPPQRPQDDYSVLFEDTSYADGYSPPLNVAQRYVVACKEPKKK [D196R], the “effect of a mutation on the interaction” value is recorded as “disrupting interaction”.

The variants in another experiment derive from B1. The conditions noted are these: with h31_human H3C1, P68431. This is another data set of the same source.
Turning to MALVSADSRIAELLTELHQLIKQTQEERSRSEHNLVNIQKTHERMQTENKISPYYRTKLRGLYTTAKADAEAECNILRKALDKIAEIKSLLEERRIAAKIAGLYNDSEPPRKTMRRGVLMTLLQQSAMTLPLWIGKPGDKPPPLCGAIPASGDYVARPGDKVAARVKAVDGDEQWILAEVVSYSHATNKYEVDDIAEEGKERHTLSRRRVIPLPQWKANPETDPEALFQKEQLVLALYPQTTCFYRALIHAPPQRPQDDYSVLFEDTSYADGYSPPLNVAQRYVVACKEPKKK [D196A], the “effect of a mutation on the interaction” value was “decreasing interaction”.

Variants of B1 are the subject of a further experiment. The conditions noted are these: with h31_human H3C1, P68431. This is another data set of the same source.
Regarding MALVSADSRIAELLTELHQLIKQTQEERSRSEHNLVNIQKTHERMQTENKISPYYRTKLRGLYTTAKADAEAECNILRKALDKIAEIKSLLEERRIAAKIAGLYNDSEPPRKTMRRGVLMTLLQQSAMTLPLWIGKPGDKPPPLCGAIPASGDYVARPGDKVAARVKAVDGDEQWILAEVVSYSHATNKYEVDDIAEEGKERHTLSRRRVIPLPQWKANPETDPEALFQKEQLVLALYPQTTCFYRALIHAPPQRPQDDYSVLFEDTSYADGYSPPLNVAQRYVVACKEPKKK [D196A], the “effect of a mutation on the interaction” value is recorded as “disrupting interaction”.

In another experiment the parent is B1. To be noted: with h31_human H3C1, P68431. The source holds these as a separate data set.
For the variant MALVSADSRIAELLTELHQLIKQTQEERSRSEHNLVNIQKTHERMQTENKISPYYRTKLRGLYTTAKADAEAECNILRKALDKIAEIKSLLEERRIAAKIAGLYNDSEPPRKTMRRGVLMTLLQQSAMTLPLWIGKPGDKPPPLCGAIPASGDYVARPGDKVAARVKAVDGDEQWILAEVVSYSHATNKYEVDAIDEEGKERHTLSRRRVIPLPQWKANPETDPEALFQKEQLVLALYPQTTCFYRALIHAPPQRPQDDYSVLFEDTSYADGYSPPLNVAQRYVVACKEPKKK [D194A], the “effect of a mutation on the interaction” value is on record as “disrupting interaction”.

In a further experiment the parent is B1. To be noted: with h31_human H3C1, P68431. The source holds these as a separate data set.
Consider MALVSADSRIAELLTELHQLIKQTQEERSRSEHNLVNIQKTHERMQTENKISPYYRTKLRGLYTTAKADAEAECNILRKALDKIAEIKSLLEERRIAAKIAGLYNDSEPPRKTMRRGVLMTLLQQSAMTLPLWIGKPGDKPPPLCGAIPASGDYVARPGDKVAARVKAVDGDEQWILAEVVSYSHATNKYEVDDIDEEGKERHTLSRRRVIPLPQWKANPETDPEALFQKEQLVLALYPQTTCFARALIHAPPQRPQDDYSVLFEDTSYADGYSPPLNVAQRYVVACKEPKKK [Y245A], for which the “effect of a mutation on the interaction” value is “disrupting interaction”.

Variants of B1 are the subject of a further experiment. To be noted: with h31_human H3C1, P68431. This is another data set of the same source.
For MALVSADSRIAELLTELHQLIKQTQEERSRSEHNLVNIQKTHERMQTENKISPYYRTKLRGLYTTAKADAEAECNILRKALDKIAEIKSLLEERRIAAKIAGLYNDSEPPRKTMRRGVLMTLLQQSAMTLPLWIGKPGDKPPPLCGAIPASGDYVARPGDKVAARVKAVDGDEQWILAEVVSYSHATNKYEVDDIDEEGKERHTLSRRRVIPLPQWKANPETDPEALFQKEQLVLALYPQTACFYRALIHAPPQRPQDDYSVLFEDTSYADGYSPPLNVAQRYVVACKEPKKK [T242A], the “effect of a mutation on the interaction” value is “decreasing interaction”.

Variants of B1 are the subject of the next experiment. To be noted: with h31_human H3C1, P68431. This is another data set of the same source.
Turning to MALVSADSRIAELLTELHQLIKQTQEERSRSEHNLVNIQKTHERMQTENKISPYYRTKLRGLYTTAKADAEAECNILRKALDKIAEIKSLLEERRIAAKIAGLYNDSEPPRKTMRRGVLMTLLQQSAMTLPLWIGKPGDKPPPLCGAIPASGDYVARPGDKVAARVKAVDGDEQWILAEVVSYSHATNKYEVDDIDEEGKERHTLSRRRVIPLPQWKANPETDPEALFQKEQLVLALYPATTCFYRALIHAPPQRPQDDYSVLFEDTSYADGYSPPLNVAQRYVVACKEPKKK [Q240A], the “effect of a mutation on the interaction” value is recorded as “decreasing interaction”.

Another experiment covers variants of B1. The conditions noted are these: with h31_human H3C1, P68431. This is another data set of the same source.
For the variant MALVSADSRIAELLTELHQLIKQTQEERSRSEHNLVNIQKTHERMQTENKISPYYRTKLRGLYTTAKADAEAECNILRKALDKIAEIKSLLEERRIAAKIAGLYNDSEPPRKTMRRGVLMTLLQQSAMTLPLWIGKPGDKPPPLCGAIPASGDYVARPGDKVAARVKAVDGDEQWILAEVVSYSHATNKYEVDDIDEEGKERHTLSRRRVIPLPQWKANPETDPEALFQKEQLVLALYPQTTCFYRALIHAPPQRPQDDYSVLAEDTSYADGYSPPLNVAQRYVVACKEPKKK [F264A], the “effect of a mutation on the interaction” value was “decreasing interaction”.

A further experiment covers variants of B1. To be noted: with h31_human H3C1, P68431. This is another data set of the same source.
Regarding MALVSADSRIAELLTELHQLIKQTQEERSRSEHNLVNIQKTHERMQTENKISPYYRTKLRGLYTTAKADAEAECNILRKALDKIAEIKSLLEERRIAAKIAGLYNDSEPPRKTMRRGVLMTLLQQSAMTLPLWIGKPGDKPPPLCGAIPASGDYVARPGDKVAARVKAVDGDEQWILAEVVSYSHATNKYEVDDIDEEGKERHTLSRRRVIPLPQWKANPETDPEALFQKEQLVLALAPQTTCFYRALIHAPPQRPQDDYSVLFEDTSYADGYSPPLNVAQRYVVACKEPKKK [Y238A], the “effect of a mutation on the interaction” value is recorded as “decreasing interaction”.

A further experiment covers variants of B1. To be noted: with h31_human H3C1, P68431. This is another data set of the same source.
Regarding MALVSADSRIAELLTELHQLIKQTQEERSRSEHNLVNIQKTHERMQTENKISPYYRTKLRGLYTTAKADAEAECNILRKALDKIAEIKSLLEERRIAAKIAGLYNDSEPPRKTMRRGVLMTLLQQSAMTLPLWIGKPGDKPPPLCGAIPASGDYVARPGDKVAARVKAVDGDEQWILAEVVSYSHATNKYEVDDIDEEGKERHTLSRRRVIPLPQWKANPETDPEALFQKEQLVLALYPQTTCFYRALIHAPPQRPQDDYSVLFEATSYADGYSPPLNVAQRYVVACKEPKKK [D266A], the “effect of a mutation on the interaction” value was “decreasing interaction”.
